In CN116284353A one finds 最低检出限度 data, which are given here for one molecule.

This experiment concerns the target 柯萨奇病毒A16型病毒样颗粒 (Coxsackievirus A16) (UniProt Q65900). In words: sandwich ELISA: rabbit anti-CV A16 VLP polyclonal serum (1:8000) as capture, CV A16 VLP titrated, mAb 10 ng/μL as detector; positive when OD450nm>0.15. A general note: In an ELISA, binding on a coated surface is turned into a signal by an enzyme label.
Chain of UniProt Q65900 (Q65900 2-862): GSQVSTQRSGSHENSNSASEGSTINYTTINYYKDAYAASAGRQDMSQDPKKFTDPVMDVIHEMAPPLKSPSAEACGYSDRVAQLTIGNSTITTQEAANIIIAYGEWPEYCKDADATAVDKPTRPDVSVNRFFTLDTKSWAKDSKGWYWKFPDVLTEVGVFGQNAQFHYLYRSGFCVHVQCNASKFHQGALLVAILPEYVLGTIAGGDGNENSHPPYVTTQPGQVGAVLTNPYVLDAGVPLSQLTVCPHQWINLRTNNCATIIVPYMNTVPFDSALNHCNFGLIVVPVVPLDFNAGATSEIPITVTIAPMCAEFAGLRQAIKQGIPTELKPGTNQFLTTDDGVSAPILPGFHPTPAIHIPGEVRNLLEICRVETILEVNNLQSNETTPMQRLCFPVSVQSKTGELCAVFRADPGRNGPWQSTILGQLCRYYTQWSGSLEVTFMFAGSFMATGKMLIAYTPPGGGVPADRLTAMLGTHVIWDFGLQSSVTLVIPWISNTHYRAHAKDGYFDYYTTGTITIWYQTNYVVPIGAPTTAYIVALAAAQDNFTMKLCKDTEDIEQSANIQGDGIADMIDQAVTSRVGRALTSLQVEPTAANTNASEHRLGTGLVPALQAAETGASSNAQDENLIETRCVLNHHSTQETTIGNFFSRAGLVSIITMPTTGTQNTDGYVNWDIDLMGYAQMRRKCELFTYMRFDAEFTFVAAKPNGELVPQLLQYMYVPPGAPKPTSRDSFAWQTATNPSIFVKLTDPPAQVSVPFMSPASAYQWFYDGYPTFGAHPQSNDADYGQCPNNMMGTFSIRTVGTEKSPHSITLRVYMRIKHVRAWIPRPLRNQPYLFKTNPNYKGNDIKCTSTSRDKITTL

B1: 单克隆抗体3H5 (antibody, mouse IgG1, kappa, V domains shown)
VH: EVKLEESGGGLVQPGGSMKLSCVGSGFTFSNYWMNWVRQSPDKGLEWVAEIRSKSNNYATHYAESVKGRLTISRDDSKSGVYLQMNNLRPEDTGIYYCTRSGAYWGQGTLVTVSA
VL: QIVLTQSPAIMSASPGEKVTMTCSASSSVSYIYWYQQKPGSSPRLLIYDTTRLASGVPVRFSGSGSGTSYSLTISRMEAEDAATYYCQHWNSYPFTFGSGTKLEIKR
As for B1, the 最低检出限度 was 62.5 ng/mL.
